Experimental data taken from patent US20200087373A1 (UNIVERSITY OF COPENHAGEN, published 2020).
Ends that are not written are not given here. * marks the point of attachment. C16 diacid = O=C(O)CCCCCCCCCCCCCCC(=O)*; C12 diacid = O=C(O)CCCCCCCCCCC(=O)*; Stearoyl = CCCCCCCCCCCCCCCCCC(=O)*; Palmitoyl = CCCCCCCCCCCCCCCC(=O)*; Lauroyl = CCCCCCCCCCCC(=O)*

T1: human GIP receptor (human, UniProt P48546 22-466)
T1 sequence (looked up): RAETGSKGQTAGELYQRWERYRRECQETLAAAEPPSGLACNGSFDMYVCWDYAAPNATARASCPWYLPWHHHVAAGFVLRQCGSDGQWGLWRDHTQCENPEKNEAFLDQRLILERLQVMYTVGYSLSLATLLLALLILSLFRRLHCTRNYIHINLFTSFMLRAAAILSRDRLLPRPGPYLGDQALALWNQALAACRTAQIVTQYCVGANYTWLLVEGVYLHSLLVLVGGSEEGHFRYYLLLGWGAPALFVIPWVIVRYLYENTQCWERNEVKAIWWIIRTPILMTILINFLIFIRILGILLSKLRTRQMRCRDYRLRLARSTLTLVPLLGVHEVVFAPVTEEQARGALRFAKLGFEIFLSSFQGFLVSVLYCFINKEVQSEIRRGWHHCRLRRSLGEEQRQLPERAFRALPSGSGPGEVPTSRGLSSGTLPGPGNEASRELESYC

B1: AT153 [hGIP(3-30)NH2[H18R; K30R]-C12/16] (peptide)
peptide: EGTFISDYSIAMDK(Lauroyl)IRQQDFVNWLLAQR-NH2
modifications: N-terminus assumed
SMILES: CCCCCCCCCCCC(=O)NCCCC[C@H](NC(=O)[C@H](CC(=O)O)NC(=O)[C@H](CCSC)NC(=O)[C@H](C)NC(=O)[C@@H](NC(=O)[C@H](CO)NC(=O)[C@H](Cc1ccc(O)cc1)NC(=O)[C@H](CC(=O)O)NC(=O)[C@H](CO)NC(=O)[C@@H](NC(=O)[C@H](Cc1ccccc1)NC(=O)[C@@H](NC(=O)CNC(=O)[C@@H](N)CCC(=O)O)[C@@H](C)O)[C@@H](C)CC)[C@@H](C)CC)C(=O)N[C@H](C(=O)N[C@@H](CCCNC(=N)N)C(=O)N[C@@H](CCC(N)=O)C(=O)N[C@@H](CCC(N)=O)C(=O)N[C@@H](CC(=O)O)C(=O)N[C@@H](Cc1ccccc1)C(=O)N[C@H](C(=O)N[C@@H](CC(N)=O)C(=O)N[C@@H](Cc1c[nH]c2ccccc12)C(=O)N[C@@H](CC(C)C)C(=O)N[C@@H](CC(C)C)C(=O)N[C@@H](C)C(=O)N[C@@H](CCC(N)=O)C(=O)N[C@@H](CCCNC(=N)N)C(N)=O)C(C)C)[C@@H](C)CC
B2: AT158 [hGIP(3-30)NH2[H18K]-C16diacid/18] (peptide)
peptide: EGTFISDYSIAMDKIK(C16 diacid)QQDFVNWLLAQK-NH2
modifications: N-terminus assumed
SMILES: CC[C@H](C)[C@H](NC(=O)[C@H](CO)NC(=O)[C@H](Cc1ccc(O)cc1)NC(=O)[C@H](CC(=O)O)NC(=O)[C@H](CO)NC(=O)[C@@H](NC(=O)[C@H](Cc1ccccc1)NC(=O)[C@@H](NC(=O)CNC(=O)[C@@H](N)CCC(=O)O)[C@@H](C)O)[C@@H](C)CC)C(=O)N[C@@H](C)C(=O)N[C@@H](CCSC)C(=O)N[C@@H](CC(=O)O)C(=O)N[C@@H](CCCCN)C(=O)N[C@H](C(=O)N[C@@H](CCCCNC(=O)CCCCCCCCCCCCCCC(=O)O)C(=O)N[C@@H](CCC(N)=O)C(=O)N[C@@H](CCC(N)=O)C(=O)N[C@@H](CC(=O)O)C(=O)N[C@@H](Cc1ccccc1)C(=O)N[C@H](C(=O)N[C@@H](CC(N)=O)C(=O)N[C@@H](Cc1c[nH]c2ccccc12)C(=O)N[C@@H](CC(C)C)C(=O)N[C@@H](CC(C)C)C(=O)N[C@@H](C)C(=O)N[C@@H](CCC(N)=O)C(=O)N[C@@H](CCCCN)C(N)=O)C(C)C)[C@@H](C)CC
B3: AT144 [hGIP(3-30)NH2[K16R; H18K; K30R]-C16/18] (peptide)
peptide: EGTFISDYSIAMDRIK(Palmitoyl)QQDFVNWLLAQR-NH2
modifications: N-terminus assumed
SMILES: CCCCCCCCCCCCCCCC(=O)NCCCC[C@H](NC(=O)[C@@H](NC(=O)[C@H](CCCNC(=N)N)NC(=O)[C@H](CC(=O)O)NC(=O)[C@H](CCSC)NC(=O)[C@H](C)NC(=O)[C@@H](NC(=O)[C@H](CO)NC(=O)[C@H](Cc1ccc(O)cc1)NC(=O)[C@H](CC(=O)O)NC(=O)[C@H](CO)NC(=O)[C@@H](NC(=O)[C@H](Cc1ccccc1)NC(=O)[C@@H](NC(=O)CNC(=O)[C@@H](N)CCC(=O)O)[C@@H](C)O)[C@@H](C)CC)[C@@H](C)CC)[C@@H](C)CC)C(=O)N[C@@H](CCC(N)=O)C(=O)N[C@@H](CCC(N)=O)C(=O)N[C@@H](CC(=O)O)C(=O)N[C@@H](Cc1ccccc1)C(=O)N[C@H](C(=O)N[C@@H](CC(N)=O)C(=O)N[C@@H](Cc1c[nH]c2ccccc12)C(=O)N[C@@H](CC(C)C)C(=O)N[C@@H](CC(C)C)C(=O)N[C@@H](C)C(=O)N[C@@H](CCC(N)=O)C(=O)N[C@@H](CCCNC(=N)N)C(N)=O)C(C)C
B4: AT163 [hGIP(3-30)NH2[H18K]-C16/16] (peptide)
peptide: EGTFISDYSIAMDK(Palmitoyl)IKQQDFVNWLLAQK-NH2
modifications: N-terminus assumed
SMILES: CCCCCCCCCCCCCCCC(=O)NCCCC[C@H](NC(=O)[C@H](CC(=O)O)NC(=O)[C@H](CCSC)NC(=O)[C@H](C)NC(=O)[C@@H](NC(=O)[C@H](CO)NC(=O)[C@H](Cc1ccc(O)cc1)NC(=O)[C@H](CC(=O)O)NC(=O)[C@H](CO)NC(=O)[C@@H](NC(=O)[C@H](Cc1ccccc1)NC(=O)[C@@H](NC(=O)CNC(=O)[C@@H](N)CCC(=O)O)[C@@H](C)O)[C@@H](C)CC)[C@@H](C)CC)C(=O)N[C@H](C(=O)N[C@@H](CCCCN)C(=O)N[C@@H](CCC(N)=O)C(=O)N[C@@H](CCC(N)=O)C(=O)N[C@@H](CC(=O)O)C(=O)N[C@@H](Cc1ccccc1)C(=O)N[C@H](C(=O)N[C@@H](CC(N)=O)C(=O)N[C@@H](Cc1c[nH]c2ccccc12)C(=O)N[C@@H](CC(C)C)C(=O)N[C@@H](CC(C)C)C(=O)N[C@@H](C)C(=O)N[C@@H](CCC(N)=O)C(=O)N[C@@H](CCCCN)C(N)=O)C(C)C)[C@@H](C)CC
B5: AT159 [hGIP(3-30)NH2[K16R; H18K; K30R]-C16diacid/18] (peptide)
peptide: EGTFISDYSIAMDRIK(C16 diacid)QQDFVNWLLAQR-NH2
modifications: N-terminus assumed
SMILES: CC[C@H](C)[C@H](NC(=O)[C@H](CO)NC(=O)[C@H](Cc1ccc(O)cc1)NC(=O)[C@H](CC(=O)O)NC(=O)[C@H](CO)NC(=O)[C@@H](NC(=O)[C@H](Cc1ccccc1)NC(=O)[C@@H](NC(=O)CNC(=O)[C@@H](N)CCC(=O)O)[C@@H](C)O)[C@@H](C)CC)C(=O)N[C@@H](C)C(=O)N[C@@H](CCSC)C(=O)N[C@@H](CC(=O)O)C(=O)N[C@@H](CCCNC(=N)N)C(=O)N[C@H](C(=O)N[C@@H](CCCCNC(=O)CCCCCCCCCCCCCCC(=O)O)C(=O)N[C@@H](CCC(N)=O)C(=O)N[C@@H](CCC(N)=O)C(=O)N[C@@H](CC(=O)O)C(=O)N[C@@H](Cc1ccccc1)C(=O)N[C@H](C(=O)N[C@@H](CC(N)=O)C(=O)N[C@@H](Cc1c[nH]c2ccccc12)C(=O)N[C@@H](CC(C)C)C(=O)N[C@@H](CC(C)C)C(=O)N[C@@H](C)C(=O)N[C@@H](CCC(N)=O)C(=O)N[C@@H](CCCNC(=N)N)C(N)=O)C(C)C)[C@@H](C)CC
B6: AT160 [hGIP(3-30)NH2[H18K]-C18/18] (peptide)
peptide: EGTFISDYSIAMDKIK(Stearoyl)QQDFVNWLLAQK-NH2
modifications: N-terminus assumed
SMILES: CCCCCCCCCCCCCCCCCC(=O)NCCCC[C@H](NC(=O)[C@@H](NC(=O)[C@H](CCCCN)NC(=O)[C@H](CC(=O)O)NC(=O)[C@H](CCSC)NC(=O)[C@H](C)NC(=O)[C@@H](NC(=O)[C@H](CO)NC(=O)[C@H](Cc1ccc(O)cc1)NC(=O)[C@H](CC(=O)O)NC(=O)[C@H](CO)NC(=O)[C@@H](NC(=O)[C@H](Cc1ccccc1)NC(=O)[C@@H](NC(=O)CNC(=O)[C@@H](N)CCC(=O)O)[C@@H](C)O)[C@@H](C)CC)[C@@H](C)CC)[C@@H](C)CC)C(=O)N[C@@H](CCC(N)=O)C(=O)N[C@@H](CCC(N)=O)C(=O)N[C@@H](CC(=O)O)C(=O)N[C@@H](Cc1ccccc1)C(=O)N[C@H](C(=O)N[C@@H](CC(N)=O)C(=O)N[C@@H](Cc1c[nH]c2ccccc12)C(=O)N[C@@H](CC(C)C)C(=O)N[C@@H](CC(C)C)C(=O)N[C@@H](C)C(=O)N[C@@H](CCC(N)=O)C(=O)N[C@@H](CCCCN)C(N)=O)C(C)C
B7: AT149 [hGIP(3-30)NH2[H18R; K30R]-C12diacid/3] (peptide)
peptide: {C12 diacid}-EGTFISDYSIAMDKIRQQDFVNWLLAQR-NH2
SMILES: CC[C@H](C)[C@H](NC(=O)[C@H](CO)NC(=O)[C@H](Cc1ccc(O)cc1)NC(=O)[C@H](CC(=O)O)NC(=O)[C@H](CO)NC(=O)[C@@H](NC(=O)[C@H](Cc1ccccc1)NC(=O)[C@@H](NC(=O)CNC(=O)[C@H](CCC(=O)O)NC(=O)CCCCCCCCCCC(=O)O)[C@@H](C)O)[C@@H](C)CC)C(=O)N[C@@H](C)C(=O)N[C@@H](CCSC)C(=O)N[C@@H](CC(=O)O)C(=O)N[C@@H](CCCCN)C(=O)N[C@H](C(=O)N[C@@H](CCCNC(=N)N)C(=O)N[C@@H](CCC(N)=O)C(=O)N[C@@H](CCC(N)=O)C(=O)N[C@@H](CC(=O)O)C(=O)N[C@@H](Cc1ccccc1)C(=O)N[C@H](C(=O)N[C@@H](CC(N)=O)C(=O)N[C@@H](Cc1c[nH]c2ccccc12)C(=O)N[C@@H](CC(C)C)C(=O)N[C@@H](CC(C)C)C(=O)N[C@@H](C)C(=O)N[C@@H](CCC(N)=O)C(=O)N[C@@H](CCCNC(=N)N)C(N)=O)C(C)C)[C@@H](C)CC

biological target: T1, human GIP receptor; test: cell-based or functional assay

Going from B1 to Lauroyl-EGTFISDYSIAMDKIHQQDFVNWLLAQK-NH2 [AT148 [hGIP(3-30)NH2-C12/3]], the “cAMP agonism, Emax” value rises from 0% to 43%.

Going from B2 to B3, the “cAMP agonism, Emax” value falls from 6% to 0%.

Compared with B4, B5 is higher in “cAMP agonism, Emax” value: 0% for the first, 6% for the second.

Compared with B6, B7 is higher in “cAMP agonism, Emax” value: 13% for the first, 50% for the second.

For EGTFISDYSIAMDK(Lauroyl)IHQQDFVNWLLAQK-NH2 [AT154 [hGIP(3-30)NH2-C12/16]], the “cAMP agonism, Emax” value was 0%.

Compared with B1, B2 is lower in “cAMP antagonism, log (IC50)” value: -6.7 log M for the first, -8.3 log M for the second.

Going from B3 to B4, the “cAMP antagonism, log (IC50)” value rises from -7.3 log M to -6.7 log M.

First: B5
Second: B6
The “cAMP antagonism, log (IC50)” value of the first is lower: -8.2 log M for the first, -7.4 log M for the second.

EGTFISDYSIAMDK(Lauroyl)IHQQDFVNWLLAQK-NH2 [AT154 [hGIP(3-30)NH2-C12/16]] was tested, and the “cAMP antagonism, log (IC50)” value was -7.2 log M.

Compared with B1, B2 is 37-fold lower in “cAMP antagonism, nM (IC50)” value: 187 nM for the first, 5 nM for the second.

First: B3
Second: B4
The “cAMP antagonism, nM (IC50)” value of the first is 4-fold lower: 53.3 nM for the first, 212 nM for the second.

Going from B5 to B6, the “cAMP antagonism, nM (IC50)” value rises from 6 nM to 38 nM (6.3-fold).

With EGTFISDYSIAMDK(Lauroyl)IHQQDFVNWLLAQK-NH2 [AT154 [hGIP(3-30)NH2-C12/16]] the “cAMP antagonism, nM (IC50)” value was 63 nM.

First: Lauroyl-EGTFISDYSIAMDKIHQQDFVNWLLAQK-NH2 [AT148 [hGIP(3-30)NH2-C12/3]]
Second: B2
The “cAMP agonism, EC50 (log)” value of the first is higher: -7.9 log M for the first, -8.5 log M for the second.

Going from B5 to B6, the “cAMP agonism, EC50 (log)” value rises from -8.7 log M to -6 log M.

First: Lauroyl-EGTFISDYSIAMDKIHQQDFVNWLLAQK-NH2 [AT148 [hGIP(3-30)NH2-C12/3]]
Second: B2
The “cAMP agonism, nM (EC50)” value of the first is 4.2-fold higher: 13 nM for the first, 3.1 nM for the second.

Going from B5 to B6, the “cAMP agonism, nM (EC50)” value rises from 2 nM to 962 nM (480-fold).
